Source: patent publication US20200010546A1 (TRICAN BIOTECHNOLOGY, published 2020)
Residue numbers refer to the chain shown, from its start. Values belong to the binder of their own block, whether it stands above or below them.

Columns and labels:
[1] = molecular target: T1, recombinant human His-tagged SIRP-α protein (R&D Systems, USA) (human, UniProt P78324 31-370, limits assumed); test: direct ELISA, SIRP-α coated at 1 µg/ml
T1 construct: Bought from R&D Systems; also called signal-regulatory protein alpha; not shown: His tag
T1 sequence (P78324 31-370 limits assumed): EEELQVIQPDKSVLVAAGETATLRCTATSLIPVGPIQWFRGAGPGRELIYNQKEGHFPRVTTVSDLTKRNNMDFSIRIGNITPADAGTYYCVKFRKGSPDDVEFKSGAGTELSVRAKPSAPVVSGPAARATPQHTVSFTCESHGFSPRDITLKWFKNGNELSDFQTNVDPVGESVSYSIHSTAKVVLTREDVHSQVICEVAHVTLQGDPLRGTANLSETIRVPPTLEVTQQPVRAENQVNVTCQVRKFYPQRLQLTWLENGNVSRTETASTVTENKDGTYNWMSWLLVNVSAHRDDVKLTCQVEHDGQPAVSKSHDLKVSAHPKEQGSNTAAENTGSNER

[2] = molecular target: T2, recombinant human CD47-Fc protein (R&D Systems, USA) (human, UniProt Q08722 19-139); test: titration ELISA on coated CD47-Fc
T2 construct: Bought from R&D Systems; also called CD47-Fc fusion protein; recombinant CD47; not shown: Fc part of the bought fusion
T2 sequence (Q08722 19-139 limits assumed): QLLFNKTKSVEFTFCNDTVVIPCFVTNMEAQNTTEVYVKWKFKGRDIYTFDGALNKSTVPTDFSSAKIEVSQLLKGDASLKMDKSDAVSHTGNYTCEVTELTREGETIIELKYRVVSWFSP

[3] = molecular target: T2, recombinant human CD47-Fc protein (R&D …); test: ELISA of Fab supernatant on coated CD47-Fc
[4] = molecular target: T2, recombinant human CD47-Fc protein (R&D …); test: blocking ELISA: CD47-Fc (1 µg/ml) binding to coated His-tagged SIRP-α

binding result [1]: no binding (tested: 0.5 µg/ml)
EC50 [2]: 1.21 nM
B1: BrP1F11 (IgG4-reformatted anti-CD47 antibody) (antibody, V domains shown)
VH: QVQLVQSGAEVKKPGASVKISCKASGYTFTTYHIHWVRQAPGQGLEWMGVINSNAGNTGYAQNFQDRVTMTRDTSTSTVYMELRSLKSDDTAVYYCAKDPGMGWYMHHWGQGTLVTVSS
VL: NFMLTQPQSVSGSPGETVTISCTGSGGPIASNYVQWYQQRPGSVPTTVIYEDTKRPSGVPDRFSGSIDSSSNSASLTISGLKTEDEADYYCQSYESRNYVFGTGTKVSVLS
notes: Full-length human IgG4, expressed in HEK293 cells; also called BrP1F11-G4

OD450 [3]: > 0.5 OD450
B2: BrP1F11 Fab (library clone) (Fab, V domains shown)
VH: B1 VH
VL: B1 VL
notes: Fab in bacterial supernatant

binding result [1]: no binding (tested: 0.5 µg/ml)
EC50 [2]: 10.1 nM
B3: BrP1F3 (IgG4-reformatted anti-CD47 antibody) (antibody, V domains shown)
VH: QVQLVQSGAEVKKPGASVKVSCKASGYTFTSYYMHWVRQAPGQGLEWMGIINPSGGSTSYAQKFQGRVTMTRDTSTSTVYMELSSLRSEDTAVYYCARGGTLGMDVWGQGTTVTVSS
VL: SSELTQDPAVSVALGQTVRITCQGDSLRSYYASWYQQKPGQAPVLVIYGKNNRPSGIPDRFSGSSSGNTASLTITGAQAEDEADYYCNSRDSSGNHYVFGTGTKVTVLG
notes: Full-length human IgG4, expressed in HEK293 cells

OD450 [3]: > 0.5 OD450
B4: BrP1F3 Fab (library clone) (Fab, V domains shown)
VH: B3 VH
VL: B3 VL
notes: Fab in bacterial supernatant

OD450 [3]: > 0.5 OD450
B5: CwP1A1 Fab (library clone) (Fab, V domains shown)
VH: QITLKESGPTLVKPTQTLTLTCTFSGFSLSTRGVGVGWIRQPPGKALEWLALIYWNDDKRYSPSLKSRLTITKDTSKNQVVLTMTNMDPVDTATYYCAHLITFGGRRAFDIWGQGTMVTVSS
VL: not shown
notes: Fab in bacterial supernatant

IC50 [4]: 0.155 nM
binding result [1]: no binding (tested: 0.5 µg/ml)
EC50 [2]: 0.227 nM
B6: CwP1C4 (IgG4-reformatted anti-CD47 antibody) (antibody, V domains shown)
VH: B5 VH with I2V, F27L, R32S, I71V
VL: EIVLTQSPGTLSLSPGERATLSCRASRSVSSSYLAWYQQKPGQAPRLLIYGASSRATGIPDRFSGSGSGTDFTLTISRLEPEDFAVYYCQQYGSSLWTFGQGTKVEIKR
notes: as for B3

OD450 [3]: > 0.5 OD450
B7: CwP1C4 Fab (library clone) (Fab, V domains shown)
VH: B5 VH with I2V, F27L, R32S, I71V
VL: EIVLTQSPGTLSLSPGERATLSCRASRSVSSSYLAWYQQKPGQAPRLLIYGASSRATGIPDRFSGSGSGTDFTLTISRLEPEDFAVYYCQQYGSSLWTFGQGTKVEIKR
notes: Fab in bacterial supernatant

IC50 [4]: 0.063 nM
binding result [1]: no binding (tested: 0.5 µg/ml)
EC50 [2]: 0.441 nM
B8: CwP2F12 (IgG4-reformatted anti-CD47 antibody) (antibody, V domains shown)
VH: QVQLVQSGAEVKKPGASVRLSCKASGYTFSSYYMHWVRQAPGQGLVWMGTSIPTAASGSYAQKFQGRVTMTRDTSTTTVYMELSSLRSEDTAVYYCARGGRGGFDYWGQGTPVTVSS
VL: QPGLTQPPSVSKGLRRTATLTCTGNSNNVGNQGAVWLQQHQGHPPKLLSYRNNNRPSGISERFSASRSANTASLTITGLQPEDEADYYCSAWDSSLSGWVFGGGTKLTVLG
notes: as for B3

OD450 [3]: > 0.5 OD450
B9: CwP2F12 Fab (library clone) (Fab, V domains shown)
VH: B8 VH
VL: B8 VL
notes: Fab in bacterial supernatant

IC50 [4]: 0.068 nM
binding result [1]: no binding (tested: 0.5 µg/ml)
EC50 [2]: 0.326 nM
B10: CwP2F8 (IgG4-reformatted anti-CD47 antibody) (antibody, V domains shown)
VH: QVQLVQSGAEVKKPGSSVKVSCKASGGTFSSYAISWVRQAPGQGLEWMGRIIPILGIANYAQKFQGRVTITADKSTSTAYMELSSLRSEDTAVYYCARSLRWLHRVFDYWGQGTTVTVSS
VL: QSVLTQPASVSGSPGQSITISCTGTSSDVGGYNYVSWYQQHPGKAPKLIIFDVINRPSGVSSRFSGSKSGTSATLVITGLQTGDEADYYCGTWDNSLRAYVFGSGTNVTALG
notes: as for B3

OD450 [3]: > 0.5 OD450
B11: CwP2F8 Fab (library clone) (Fab, V domains shown)
VH: B10 VH
VL: B10 VL
notes: Fab in bacterial supernatant
